Target: human NGF (human) (UniProt P01138)
Experiment: cell-based or functional assay

Chain of human NGF (human) (P01138 122-241 limits assumed): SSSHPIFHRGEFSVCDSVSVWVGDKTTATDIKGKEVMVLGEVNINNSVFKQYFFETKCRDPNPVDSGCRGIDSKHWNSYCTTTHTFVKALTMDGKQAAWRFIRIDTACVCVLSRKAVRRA

mouse antibody 911 (Fab) gave an antibody concentration that totally blocked NGF-elicited survival of trigeminal neurons of 20 nM.
